Assay results published in patent US8530190 (MERCK SERONO, dated 2013).

Legend:
rat LH receptor [1] = biological target: T1, rat LH receptor (rat, UniProt P16235 27-700); experiment: hormone-receptor complex formation (Table 1D)
T1 construct: whole, on cells; also called LH receptors

human FSH receptor [2] = biological target: T2, human FSH receptor (human, UniProt P23945 18-695); experiment: hormone-receptor complex formation (Table 1D)
T2 construct: whole, on cells; also called hFSH receptors
T2 sequence (looked up): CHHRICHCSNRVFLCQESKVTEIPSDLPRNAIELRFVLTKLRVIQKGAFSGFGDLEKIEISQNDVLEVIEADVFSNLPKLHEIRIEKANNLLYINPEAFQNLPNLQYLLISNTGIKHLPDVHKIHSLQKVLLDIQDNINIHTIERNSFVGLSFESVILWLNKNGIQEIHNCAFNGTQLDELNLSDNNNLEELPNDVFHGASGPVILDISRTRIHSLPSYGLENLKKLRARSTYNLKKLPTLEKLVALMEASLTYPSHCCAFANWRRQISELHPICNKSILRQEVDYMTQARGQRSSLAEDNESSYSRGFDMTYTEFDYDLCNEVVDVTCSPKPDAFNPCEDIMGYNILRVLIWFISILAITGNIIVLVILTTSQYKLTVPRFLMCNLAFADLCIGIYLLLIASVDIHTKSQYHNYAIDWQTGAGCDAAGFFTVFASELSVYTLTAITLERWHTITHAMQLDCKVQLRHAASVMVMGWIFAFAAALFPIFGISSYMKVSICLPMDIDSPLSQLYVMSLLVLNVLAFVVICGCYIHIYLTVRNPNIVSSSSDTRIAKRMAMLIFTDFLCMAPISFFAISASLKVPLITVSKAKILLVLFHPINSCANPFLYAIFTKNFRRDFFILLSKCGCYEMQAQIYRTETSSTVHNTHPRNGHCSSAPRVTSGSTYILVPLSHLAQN

rat LH receptor [3] = biological target: T1, rat LH receptor; experiment: receptor binding and signal transduction assays
human FSH receptor [4] = biological target: T2, human FSH receptor; experiment: receptor binding and signal transduction assays
rat LH receptor [5] = biological target: T1, rat LH receptor; experiment: inhibition of radiolabeled hCG binding to LH receptors (FIG. 23)
rat LH receptor [6] = biological target: T1, rat LH receptor; experiment: inhibition of radiolabeled hCG binding to LH receptors (FIG. 22)
rat LH receptor [7] = biological target: T1, rat LH receptor; experiment: inhibition of 125I-hCG binding to 200,000 CHO cells that express LH receptors (FIG. 6)
Source text: (§1) These employed CHO cells that had been transfected with the genes encoding the LH receptor cDNA and that therefore express functional LH receptors on their surfaces.

rat LH receptor [8] = biological target: T1, rat LH receptor; experiment: inhibition of 125I-hCG binding to CHO cells expressing LH receptors (FIG. 30)
Source text: as §1

rat LH receptor [9] = biological target: T1, rat LH receptor; experiment: inhibition of 125I-hCG binding to CHO cells expressing LH receptors (FIG. 17)
Source text: as §1

rat LH receptor [10] = biological target: T1, rat LH receptor; experiment: competition with radiolabeled hCG on CHO cells expressing LH receptors (FIG. 18)
Source text: as §1

T1 sequence (P16235 27-700): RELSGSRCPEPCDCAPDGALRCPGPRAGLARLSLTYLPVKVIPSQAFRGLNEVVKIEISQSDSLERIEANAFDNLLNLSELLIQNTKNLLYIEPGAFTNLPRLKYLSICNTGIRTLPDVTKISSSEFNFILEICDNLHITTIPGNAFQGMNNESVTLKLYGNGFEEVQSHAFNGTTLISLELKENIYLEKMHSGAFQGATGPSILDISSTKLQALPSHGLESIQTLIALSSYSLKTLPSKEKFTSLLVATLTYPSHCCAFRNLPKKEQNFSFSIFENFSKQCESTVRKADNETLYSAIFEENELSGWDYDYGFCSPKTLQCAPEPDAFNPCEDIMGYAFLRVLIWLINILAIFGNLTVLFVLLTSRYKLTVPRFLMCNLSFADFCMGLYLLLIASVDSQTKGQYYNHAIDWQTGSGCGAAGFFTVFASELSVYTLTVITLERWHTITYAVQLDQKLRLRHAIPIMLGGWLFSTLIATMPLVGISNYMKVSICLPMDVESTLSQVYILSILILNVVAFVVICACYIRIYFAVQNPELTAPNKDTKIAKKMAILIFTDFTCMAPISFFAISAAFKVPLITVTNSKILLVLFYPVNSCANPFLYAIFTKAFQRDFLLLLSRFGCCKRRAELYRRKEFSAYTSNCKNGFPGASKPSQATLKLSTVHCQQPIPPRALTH

B1: CF101-109 (ligand)
chain 1: not shown
chain 2: SKEPLRPRCRPINATLAVEKEGCPVCITVNTTICAGYCPTMTRVLQGVLPALPQVVCNYRDVRFESIRLPGCPRGVNPVVSYAVALSCQCALCRRSTTDCTVRGLGPSYCDDPRFQDSSSSKAPPPSLPSPSRLPGPSDTPILPQ
Rat LH receptor [1]
  binding result: binds
Human FSH receptor [2]
  binding result: binds

B2: CFC101-114 (ligand)
chain 1: not shown
chain 2: SKEPLRPRCRPINATLAVEKEGCPVCITVNTTICAGYCPTMTRVLQGVLPALPQVVCNYRDVRFESIRLPGCPRGVNPVVSYAVALSCQCALCRRSTTDCTVRGLGPSYCSFGEFQDSSSSKAPPPSLPSPSRLPGPSDTPILPQ
notes: also called bifunctional hCG/hFSH chimeric analog
Rat LH receptor [3]
  binding result: binds
Human FSH receptor [4]
  binding result: binds

B3: CFC101-114(αK51A-β) (ligand)
chain 1: not shown
chain 2: SKEPLRPRCRPINATLAVEKEGCPVCITVNTTICAGYCPTMTRVLQGVLPALPQVVCNYRDVRFESIRLPGCPRGVNPVVSYAVALSCQCALCRRSTTDCTVRGLGPSYCSFGEFQDSSSSKAPPPSLPSPSRLPGPSDTPILPQ
notes: built on the mature α-subunit entry
Rat LH receptor [5]
  binding result: binds

B4: CFC101-114(αK51C-β) (ligand)
chain 1: not shown
chain 2: SKEPLRPRCRPINATLAVEKEGCPVCITVNTTICAGYCPTMTRVLQGVLPALPQVVCNYRDVRFESIRLPGCPRGVNPVVSYAVALSCQCALCRRSTTDCTVRGLGPSYCSFGEFQDSSSSKAPPPSLPSPSRLPGPSDTPILPQ
Rat LH receptor [6]
  binding result: binds

B5: CFC101-114(α51-β99) (ligand)
chain 1: not shown
chain 2: SKEPLRPRCRPINATLAVEKEGCPVCITVNTTICAGYCPTMTRVLQGVLPALPQVVCNYRDVRFESIRLPGCPRGVNPVVSYAVALSCQCALCRRSTTCCTVRGLGPSYCSFGEFQDSSSSKAPPPSLPSPSRLPGPSDTPILPQ
notes: Intersubunit disulfide αCys51-βCys99; also called CFC101(α51-β99)
Rat LH receptor [6]
  fold less active than CFC101-114 in inhibiting radiolabeled hCG binding: ~100 fold

B6: CFC101-114(α-βD99C) (ligand)
chain 1: not shown
chain 2: SKEPLRPRCRPINATLAVEKEGCPVCITVNTTICAGYCPTMTRVLQGVLPALPQVVCNYRDVRFESIRLPGCPRGVNPVVSYAVALSCQCALCRRSTTCCTVRGLGPSYCSFGEFQDSSSSKAPPPSLPSPSRLPGPSDTPILPQ
Rat LH receptor [6]
  binding result: binds

B7: hCG(α31-β37) (ligand)
chain 1: not shown
chain 2: SKEPLRPRCRPINATLAVEKEGCPVCITVNTTICAGCCPTMTRVLQGVLPALPQVVCNYRDVRFESIRLPGCPRGVNPVVSYAVALSCQCALCRRSTTDCGGPKDHPLTCDDPRFQDSSSSKAPPPSLPSPSRLPGPSDTPILPQ
notes: Intersubunit disulfide αCys31-βCys37; also called hCG3(α31-β37); crosslinked hCG analog
Rat LH receptor [7]
  binding result: binds

B8: CFC101-114(α31-β37) (ligand)
chain 1: not shown
chain 2: SKEPLRPRCRPINATLAVEKEGCPVCITVNTTICAGCCPTMTRVLQGVLPALPQVVCNYRDVRFESIRLPGCPRGVNPVVSYAVALSCQCALCRRSTTDCTVRGLGPSYCSFGEFQDSSSSKAPPPSLPSPSRLPGPSDTPILPQ
notes: Intersubunit disulfide αCys31-βCys37
Rat LH receptor [3]
  binding result: binds
Human FSH receptor [4]
  binding result: binds

B9: hCG(α31-β37, α51-β99) (ligand)
chain 1: not shown
chain 2: SKEPLRPRCRPINATLAVEKEGCPVCITVNTTICAGCCPTMTRVLQGVLPALPQVVCNYRDVRFESIRLPGCPRGVNPVVSYAVALSCQCALCRRSTTCCGGPKDHPLTCDDPRFQDSSSSKAPPPSLPSPSRLPGPSDTPILPQ
notes: Two intersubunit disulfides; also called α(C7S,K51C) + hCGβ′(Y37C,D99C)
Rat LH receptor [8]
  binding result: binds

B10: hCG(α-βD99C) (ligand)
chain 1: not shown
chain 2: SKEPLRPRCRPINATLAVEKEGCPVCITVNTTICAGYCPTMTRVLQGVLPALPQVVCNYRDVRFESIRLPGCPRGVNPVVSYAVALSCQCALCRRSTTCCGGPKDHPLTCDDPRFQDSSSSKAPPPSLPSPSRLPGPSDTPILPQ
notes: also called hCG(α-β99)
Rat LH receptor [9]
  binding result: binds

B11: hCG(αK51A-β) (ligand)
chain 1: not shown
chain 2: SKEPLRPRCRPINATLAVEKEGCPVCITVNTTICAGYCPTMTRVLQGVLPALPQVVCNYRDVRFESIRLPGCPRGVNPVVSYAVALSCQCALCRRSTTDCGGPKDHPLTCDDPRFQDSSSSKAPPPSLPSPSRLPGPSDTPILPQ
notes: as for B3
Rat LH receptor [10]
  binding result: binds
